{
  "source": "paper PMC6955223",
  "about": "“The adaptor proteins HAP1a and GRIP1 collaborate to activate the kinesin-1 isoform KIF5C” (Journal of Cell Science, 2019)",
  "biological_target": "T1, KIF5C–Halo (UniProt P28738 1-956, HaloTag TMR ligand on the HaloTag)",
  "T1 construct": "kinesin-1 heavy chain KIF5C; construct from Twelvetrees et al., 2016; also called KIF5C labelled with HaloTag TMR ligand; motor; source: COS cells, transfected, in lysate",
  "T1 sequence (looked up)": "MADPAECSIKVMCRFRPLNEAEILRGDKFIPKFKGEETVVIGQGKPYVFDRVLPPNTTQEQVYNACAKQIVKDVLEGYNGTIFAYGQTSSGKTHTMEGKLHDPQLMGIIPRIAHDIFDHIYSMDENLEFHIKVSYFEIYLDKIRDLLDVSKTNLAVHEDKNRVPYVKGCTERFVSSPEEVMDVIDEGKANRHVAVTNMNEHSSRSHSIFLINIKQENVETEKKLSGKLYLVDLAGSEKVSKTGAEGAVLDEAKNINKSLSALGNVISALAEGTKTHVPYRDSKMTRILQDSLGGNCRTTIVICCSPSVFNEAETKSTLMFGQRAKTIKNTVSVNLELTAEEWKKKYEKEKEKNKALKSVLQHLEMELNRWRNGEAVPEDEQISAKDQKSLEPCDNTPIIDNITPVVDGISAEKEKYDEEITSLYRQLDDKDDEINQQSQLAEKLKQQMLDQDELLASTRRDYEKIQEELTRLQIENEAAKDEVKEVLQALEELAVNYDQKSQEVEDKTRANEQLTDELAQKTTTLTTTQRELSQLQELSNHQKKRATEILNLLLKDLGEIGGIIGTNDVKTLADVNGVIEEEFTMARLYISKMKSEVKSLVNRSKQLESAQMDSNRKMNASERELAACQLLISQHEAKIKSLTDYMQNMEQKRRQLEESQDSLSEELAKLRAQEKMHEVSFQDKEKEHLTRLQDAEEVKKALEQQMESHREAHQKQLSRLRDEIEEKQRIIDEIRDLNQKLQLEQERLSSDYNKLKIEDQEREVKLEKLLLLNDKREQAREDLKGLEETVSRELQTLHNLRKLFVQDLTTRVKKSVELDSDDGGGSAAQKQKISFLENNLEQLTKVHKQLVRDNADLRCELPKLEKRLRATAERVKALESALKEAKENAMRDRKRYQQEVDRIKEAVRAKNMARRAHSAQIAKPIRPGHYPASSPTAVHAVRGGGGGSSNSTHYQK",
  "assay": "counting of GFP photobleaching steps (TIRFM); motor–adaptor complexes from mixed cell lysates immobilised on microtubules with 15 mM AMP-PNP instead of ATP; GFP-labelled HAP1a and GRIP1 both present; bleaching steps counted for each spot",
  "conditions": "partners not purified",
  "data": [
    {"binder": "GFP-labelled HAP1a (natural protein, rat, UniProt P54256-2 1-599, looked up, huntingtin-associated protein 1, rodent isoform HAP1a; Construct not described in the methods; named only in the sentence on photobleaching; source: cell lysate (COS cells as for the motility assay)) MRPKDQVQSSAGDGTGSGDPATGTPTTQPAADPAPEPSAEPKPAPAQGTGSGQKSGSRTKTGGSFCRSRIRGDSDAPWTRYIFQGPYGPRATGLGTGRAEGIWKTPAAYIGRRPGVSGPERAAFIRELQEALCPNPLPRKKITEDDIKVMLYLLEEKERDLNTAARIGQSLVKQNSVLMEENNKLETMLGSAREEILHLRKQVNLRDDLLQLYSDSDDDEEDEEDEEEEEGEEEEREGQRDQDQQHDHPYGAPKPPPKAETLHHCPQLEALKQKLKLLEEENDHLREEASHLDNLEDKEQMLILECVEQFSEASQQMAELSEVLVLRLEGYERQQKEITQLQAEITKLQQRCQSYGAQTEKLQQQLASEKGVHPESLRAGSHMQDYGSRPRERQEDGKSHRQRSSMPAGSVTHYGYSVPLDALPSFPETLAEELRTSLRKFITDPAYFMERCDTRCREERKKEQGTMPPPPVQDLKPPEDFEAPEELVPEEELGAIEEVGTAEDGPAEETEQASEETEAWEEVEPEVDEATRMNVVVSALEASGLGPSHLDMKYVLQQLSNWQDAHSKRQQKQKVVPKGECSRRGHPPASGTSYRSSTL", "values": [
      {"measurement": "stoichiometry N", "value": 2, "unit": "HAP1a molecules per motor"}
    ]}
  ]
}
